Results on one molecule are retold here after patent publication US20180072810A1 (published 2018).

The target in this assay is T1, cynomolgus PD-1 Fc fusion (cynomolgus monkey, UniProt B0LAJ3 25-170).
T1 construct: also called Cyno PD-1 (ELISA)
In words: ELISA on plate-bound cynomolgus PD-1 Fc fusion. In general terms: ELISA stands for enzyme-linked immunosorbent assay.

T1 sequence (B0LAJ3 entry or part of it limits assumed, form in doubt): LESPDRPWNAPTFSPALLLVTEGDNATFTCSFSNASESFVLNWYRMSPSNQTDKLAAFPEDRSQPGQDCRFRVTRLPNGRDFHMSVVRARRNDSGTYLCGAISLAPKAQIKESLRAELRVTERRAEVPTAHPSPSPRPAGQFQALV

B1: Nivolumab (antibody, V domains shown)
VH: QVQLVESGGGVVQPGRSLRLDCKASGITFSNSGMHWVRQAPGKGLEWVAVIWYDGSKRYYADSVKGRFTISRDNSKNTLFLQMNSLRAEDTAVYYCATNDDYWGQGTLVTVSS
VL: EIVLTQSPATLSLSPGERATLSCRASQSVSSYLAWYQQKPGQAPRLLIYDASNRATGIPARFSGSGSGTDFTLTISSLEPEDFAVYYCQQSSNWPRTFGQGTKVEIK
In general, EC50 refers to the concentration that produces a half-maximal response. B1 had an EC50 of 0.07 nM.
